System: trypsin
Test: Phage TRF binding assay on immobilised biotinylated trypsin (monoclonal phage ELISA)
Details: for % reduction in binding signal: GlyAla mutant (Pro3, Arg4 of EETI-II substituted) versus the clone, monoclonal phage; for Tryspin binding signal (FU): monoclonal phage supernatant, biotinylated trypsin on neutravidin plates
Method: Phage display technology facilitates isolation of binders to any given target from large combinatorial repertoires based on proteins and peptides that can be presented on the surface of filamentous phage^105. In order to isolate functional knottin-antibody fusions from the KnotBody libraries multiple rounds of phage display selections on trypsin (cognate antigen for the EETI-II donor) were carried out. Phage particles were prepared by rescuing KnotBody libraries using trypsin cleavable helper phage ^102,106Two rounds of phage display selections were performed on 10 µg/ml biotinylated trypsin immobilised on Streptavidin (for Round-1) or Neutravidin (for round-2) coated Maxisorp™ immunotubes (Thermo Scientific, Cat No. 444202). In both rounds of selection, phage libraries were pre-incubated with streptavidin coated paramagnetic beads (Thermo Fisher Scientific, Cat. No. 11205D). These beads were removed prior to the addition the phage to the antigen tubes to limit the streptavidin binders entering the selection. Polyclonal phage preparations from round-2 selection outputs were analysed for trypsin binding using a time resolved fluorescence (TRF) binding assay. In this assay, polyclonal phage binding to biotinylated trypsin immobilised on neutravidin (Thermo Fisher Scientific, Cat. No 31000) coated Maxisorp™ plates (Thermo Scientific, Cat. No. 437111) was detected using a mouse anti-M13 antibody (GE Healthcare, Cat. No. 27-9420-01) followed by europium conjugated anti-mouse antibody (Perkin Elmer, Cat. No. AD0124).
In order to identify monoclonal KnotBodies with desired binding characteristics, 94 individual clones derived from 2 rounds of selection using EETI-II CDR1 or CDR2 libraries were picked into 96 well culture plates and phage were prepared from each clone. Methods for screening by monoclonal phage ELISA are known in the art^107. […] Clones with >3x binding signal above background were picked as positive clones and sequenced to identify unique clones. 14 and 42 unique binders were identified from EETI-II CDR1 and EETI-II CDR2 libraries respectively (Table 1). 18 binders from the EETI-II CDR2 library and 3 binders from the EETI-II-CDR1 library were chosen for further characterisation based on their VL and linker sequence diversity. These binders were assigned new clone identification numbers (Table 2).
The trypsin binding capability of EETI-II is attributed to proline (Pro3) and arginine (Arg4) residues present in its loop1 (GCPRILMRC; SEQ ID NO: 68). […] Monoclonal phage was prepared from the 21 selected clones and their mutant equivalents. […] Replacement of the trypsin-binding residues of EETI-II abolished the ability of all KnotBody clones to bind to trypsin (Table 3). In order to confirm that the loss of trypsin binding was not due to reduced expression or display of pIII fusion phage was prepared from 11 (randomly chosen) KnotBodies and their GlyAla variants were analysed on a western blot using an antibody which recognises the product of gene 3 (pIII) using an anti-pIII antibody (MoBiTec GmbH) (FIG. 6).
Bovine antibodies have been described with natural ultra-long VH CDR3s containing a solvent exposed double stranded antiparallel sheet approximately 20 A° in length (referred to as the stalk) presenting a folded domain stabilised by 3 disulfide bonds (referred to as the Knob)^10. Zhang and colleagues have shown that the Knob domains of these cow ultra-long VH CDR3 antibodies (ULVC-Ab) can be replaced with other folded proteins such as erythropoietin^13. In this example, we assess the ability of a cow ULVC-Ab to present functional knottin fusions on phage in comparison with a KnotBody. In order to create a Knottin-cow UCLA fusion, the sequence between the first and the last cysteines of the knob region of the Cow ULVC-Ab BLV1H12 was replaced with the sequence of the trypsin binding knottin; EETI-II (EETI-II cow ULVC-Ab). A gene fragment encoding this construct was synthesised (Integrated DNA technologies, Table 21). […]

B1: KB_A07: EETI-II knottin fused into VL CDR2, D1A12 VH; parental KnotBody, isotype control (antibody, V domains shown)
VH: EVQLVESGGGLVRPGGSLRLSCAASGFTFSSYAMSWVRQAPGKGLEWVSAISGSGGSTYYADSVKGRFTISRDNTKNSLYLQMTSLRADDTAFYYCVKDFGPGYGTGWFDYWGPGTLVTVSS
VL: DIQMTQSPSSLSASVGDRVTITCRASQSISSYLNWYQQKPGKAPKLLIYAAGVCPRILMRCKQDSDCLAGCVCGPNGFCGSRSGVPSRFSGSGSGTDFTLTISSLQPEDFATYYCQQGASPPYTFGQGTKVEIKRT
% reduction in binding signal: 98%
Tryspin binding signal (FU): 21448 FU

B2: KB_A12: EETI-II knottin fused into VL CDR2, D1A12 VH; parental KnotBody, isotype control (antibody, V domains shown)
VH: B1 VH
VL: QSVLTQPPSVSEAPRQRVTITCSGSSSNIGNNAVNWYQQLPGKAPKLLIYAAGRCPRILMRCKQDSDCLAGCVCGPNGFCGANSGVSDRFSAAKSGTSASLAINGLRSEDEADYYCAAWDDSLNGYVFGTGTKLTVLGQP
% reduction in binding signal: 99%
phage binding to trypsin (PEG precipitated phage, compared to EETI-II cow ULVC-Ab, FIG. 25): superior binding to trypsin
Tryspin binding signal (FU): 69349 FU

Reference: patent US20230331827A1, “POTASSIUM CHANNEL INHIBITORS” (priority 2017, published 2023)
